The values that follow come from patent US20220204624A1.

What all share (assay): Octet (BLI), global fit, 1:1 binding model
On the technique in general: BLI is a label-free optical method that tracks binding on a fibre tip over time.

Test [1] has as its target cynomolgus CTLA-4 (cynomolgus) (UniProt G7PL88).
Test [2] deals with cynomolgus LAG-3 (cynomolgus).
Another test addresses human LAG-3 (human) (UniProt P18627).
A further test deals with human CTLA-4 (human) (UniProt P16410).

What is called Kd is the equilibrium constant for the complex coming apart. The low end stands for tighter binding, the high end for weaker binding.

Sequence of human LAG-3 (human) (P18627 23-450 limits assumed): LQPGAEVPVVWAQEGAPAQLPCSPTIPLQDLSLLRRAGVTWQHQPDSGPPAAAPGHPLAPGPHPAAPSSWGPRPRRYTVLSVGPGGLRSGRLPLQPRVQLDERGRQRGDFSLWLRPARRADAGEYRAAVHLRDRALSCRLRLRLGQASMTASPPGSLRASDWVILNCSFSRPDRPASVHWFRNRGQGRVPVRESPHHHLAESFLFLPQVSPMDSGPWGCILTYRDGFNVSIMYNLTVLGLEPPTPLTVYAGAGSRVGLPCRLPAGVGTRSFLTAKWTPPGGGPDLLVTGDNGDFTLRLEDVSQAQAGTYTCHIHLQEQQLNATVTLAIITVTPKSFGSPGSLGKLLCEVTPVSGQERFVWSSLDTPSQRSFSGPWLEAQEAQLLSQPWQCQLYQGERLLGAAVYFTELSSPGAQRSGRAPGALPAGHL
Sequence of human CTLA-4 (human) (P16410 36-161 limits assumed): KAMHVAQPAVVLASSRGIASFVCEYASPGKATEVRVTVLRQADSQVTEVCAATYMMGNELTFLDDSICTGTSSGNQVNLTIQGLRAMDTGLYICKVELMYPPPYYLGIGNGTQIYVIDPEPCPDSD
Sequence of cynomolgus CTLA-4 (cynomolgus) (G7PL88 entry or part of it limits assumed, form in doubt): as the sequence (P16410 36-161 limits assumed) above, with S14N, L106M counted along it

In the case of XmAb22841 (bispecific antibody), the dissociation constant Kd in test [1] is 17.6 nM; in test [2] it was 1.3 nM; with human LAG-3 (human) it was 1.4 nM; with human CTLA-4 (human) it was 4.6 nM.
